Source: article PMC11697773

Target: human neonatal Fc receptor (FcRn) (human) (UniProt P55899)
Test: BLI; Octet; biotinylated human FcRn on streptavidin-coated biosensors, antibody soluble; equilibrium binding; PBSA pH 5.6; tips regenerated in PBSA pH 7.4

B1: F5111 antibody, wild type (hIgG1 lambda) (antibody, V domains shown)
VH: QLQLQESGPGLVKPSQTLSLTCTVSGGSISSGGYYWSWIRQHPGKGLEWIGYIYYSGSTYYNPSLKSRVTISVDTSKNQFSLKLSSVTAADTAVYYCARTPTVTGDWFDPWGRGTLVTVSS
VL: NFMLTQPHSVSESPGKTVTISCTRSSGSIASNYVQWYQQRPGSSPTTVIYEDNQRPSGVPDRFSGSIDSSSNSASLTISGLKTEDEADYYCQSYDSSNVVFGGGTKLTVL
B1 was tested, and the Kd was 107 nM.
